{"source": "patent US20250263468A1", "about": "(CELLTRION, published 2025)", "key": {"[1]": {"biological_target": "T1, SARS-CoV-2 virus surface protein (RBD), wild type (SARS-CoV-2, UniProt P0DTC2 319-536)", "test": "BLI (Octet), full IgG against SARS-CoV-2 RBD", "procedure": "The binding affinity (equilibrium dissociation constant, KD) of each fully human antibody to SARS-CoV-2 RBD was evaluated by biolayer interference (BLI) assay using Octet."}, "[2]": {"biological_target": "T1, SARS-CoV-2 virus surface protein (RBD), …", "test": "BLI (Octet), full IgG against RBD WT"}, "[3]": {"biological_target": "SARS-CoV-2 spike D614 (pseudovirus) (SARS-CoV-2, UniProt P0DTC2 14-1273)", "test": "cell-based or functional assay"}}}
{"binder": "antibody No. 81 (fully human antibody, full IgG) (antibody, V domains shown) VH: QVQLVQSGGGVVQPGRSLRLSCAASGFTFSSFAMHWVRQAPGKGLEWVAVISFDGSNKYYADSVKGQFTISRDNSKNTLYLQMNSLRAEDTAVYYCARGDYYGSGSYYNPSPFFDYWGQGTLVTVSS VL: not shown", "values": [{"measurement": "Kd", "setting": "[1]", "value": 0.0428, "unit": "nM"}]}
{"binder": "antibody No. 32 (fully human antibody, full IgG) (antibody, V domains shown) VH: EVQLVQSGGGLIQPGGSLRLSCAASEFIVSSNYMTWVRQAPGKGLEWVSIIYPGGSTYYADSVKGRFTISRDNSKNTLYLRMNSLRAEDTAVYYCARDLPLTGTTLDYWGQGTLVTVSS VL: not shown", "values": [{"measurement": "Kd", "setting": "[1]", "value": 0.147, "unit": "nM"}, {"measurement": "Kd", "setting": "[2]", "value": 0.305, "unit": "nM"}, {"measurement": "koff", "setting": "[2]", "value": 0.000193, "unit": "s⁻¹"}, {"measurement": "kon", "setting": "[2]", "value": 633000, "unit": "M⁻¹ s⁻¹"}, {"measurement": "IC50, pseudovirus neutralization", "setting": "[3]", "value": 4.34, "unit": "ng/mL"}]}
{"binder": "antibody No. 54 (fully human antibody, full IgG) (antibody, V domains shown) VH: EVQLLESGGGLVQPGRSLRLSCAASGFNFDDYAMHWVRQAPGKGLEWVSGISWNSGTIGYADSVKGRFIISRDNAKNSLYLQMRSLKPEDTALYYCAKEELGPYSNRWYSSSDGMDVWGQGTTVTVSS VL: ELVLTQPPSVSGAPGQRVTISCTGSSSNIGAGYDVHWYQQLPGTAPKLLIYGNSNRPSGVPDRFSGSKSGTSASLAITGLQAEDEADYYCQSYDSSLSGVVFGGGTKLTVL", "values": [{"measurement": "Kd", "setting": "[1]", "value": 0.0313, "unit": "nM"}, {"measurement": "Kd", "setting": "[2]", "value": 0.133, "unit": "nM"}, {"measurement": "koff", "setting": "[2]", "value": 0.000108, "unit": "s⁻¹"}, {"measurement": "kon", "setting": "[2]", "value": 815000, "unit": "M⁻¹ s⁻¹"}]}
{"binder": "antibody No. 45 (fully human antibody, full IgG) (antibody, V domains shown) VH: EVQLVQSGAEVKKPGSSVKVSCKASGGTFSSYDISWVRQAPGQGLEWMGGIIPILGIPNYAQKFQGRVTITADESTSTAYMELSSLRSEDTAVYYCARSRGYSGYGANWYFDLWGRGTLVTVSS VL: ELVVTQPPSVSGAPGQRVTISCTGSSSNIGAGYDVHWYQQLPGTAPKLLIYGNSNRPSGVPDRFSGSKSGTSASLAITGLQAEDEAEYYCQSYDSSLSGPVFGGGTKLTVL", "values": [{"measurement": "Kd", "setting": "[1]", "value": 0.0708, "unit": "nM"}]}
{"binder": "antibody No. 34 (fully human antibody, full IgG) (antibody, V domains shown) VH: QVQLVQSGAEVKKPGSSVKVSCKTSGGTFSNYPLTWVRQAPGQGLEWLGGIIPIIGATNYAQKFQGRVTITADESTSTAFMELSSLRSEDTAVYYCARGRGYSGYGAAYYFDYWGQGTLVTVSS VL: ELELTQPPSVSGAPGQRVTISCTGSSSNIGAGYDVHWYQQLPGTAPKLLIYGNSNRPSGVPDRFSGSKSGTSASLAITGLQAEDEADYYCQSYDSSLSGWVFGGGTKVTVL", "values": [{"measurement": "Kd", "setting": "[1]", "value": 0.185, "unit": "nM"}]}
{"binder": "antibody No. 48 (fully human antibody, full IgG) (antibody, V domains shown) VH: EVQLVQSGGGLIQPGGSLRLSCAASGFTVSSNYMSWVRQPPGKGLEWVSVIYPGGSTFFADSVQGRFTISRDNSKNTLYLQMNSLRAEDTAVYYCARSYDFLTDYTDAFDIWGQGTMVTVSS VL: ELELTQPPSVSGAPGQRVTISCTGSSSNIGAGYDVHWYQQLPGTAPKLLIYGNSNRPSGVPDRFSGSKSGTSASLAITGLQAEDEADYYCQSYDSSLSGLWVFGGGTKLTVQ", "values": [{"measurement": "Kd", "setting": "[1]", "value": 0.184, "unit": "nM"}]}
{"binder": "antibody No. 53 (fully human antibody, full IgG) (antibody, V domains shown) VH: EVQLVQSGGGLIQPGGSLRLSCAASGFTVSSNYMSWVRQPPGKGLEWVSVIYPGGSTFFADSVQGRFTISRDNSKNTLYLQMNSLRAEDTAVYYCARSYDFLTDYTDAFDIWGQGTMVTVSS VL: not shown", "values": [{"measurement": "Kd", "setting": "[1]", "value": 3.39, "unit": "nM"}]}
{"binder": "antibody No. 37 (fully human antibody, full IgG) (antibody, V domains shown) VH: EVQLVQSGAEVKKPGESLKISCRGSGYSFTSHWIAWVRQMPGKGLEWMGIIYPGDSDSRYSPSFQGQVTISADKSISTAYLQWSSLKASDTAIYYCARGPNLYNWFDSWGQGTLVTVSS VL: not shown", "values": [{"measurement": "Kd", "setting": "[1]", "value": 0.057, "unit": "nM"}]}
{"binder": "antibody No. 59 (fully human antibody, full IgG) (antibody, V domains shown) VH: QVQLQESGPGLVKPSETLSLTCTVSGDSISGSSYYWGWIRQPPGKGLEWIGNIFYSGSTYYNPSLKSRVTISVDTPKNQFSLKLSSVTAADTAMYYCARGSRGYYDILTGYSTGGFDYWGQGTLVTVSS VL: ELQMTQSPATLSVSPGEGATLSCRASQSVSSNLAWYQHKPGQAPRLLIYDASTRATGIPARFSGSGSGTEFTLTISSLQSEDFAVYYCQQYNNWPLTFGGGTKLEIK", "values": [{"measurement": "Kd", "setting": "[1]", "value": 0.0496, "unit": "nM"}]}
{"binder": "antibody No. 61 (fully human antibody, full IgG) (antibody, V domains shown) VH: EVQLLESGGALVQPGRSLRLSCAASGFTFDDYAMHWVRQGPGKGLEWVSGTTWNSGTIGYADSVKGRFIISRDNAENSLYLQMNSLRPEDTALYYCAKDIGSGDRPDAFHLWGQGTMVTVSS VL: ELVLTQPPSVSVAPGKTARITCGGNNIGSKSVHWYQQKPGQAPVLVVYDDSDRPSGIPERFSGSNSGNTATLTISRVEAGDEADYYCQVWDSSSDRVVFGGGTKVTVL", "values": [{"measurement": "Kd", "setting": "[1]", "value": 0.0226, "unit": "nM"}]}
{"binder": "antibody No. 33 (fully human antibody, full IgG) (antibody, V domains shown) VH: EVQLVESGGGVVQPGRSLRLSCAASGLTFSDYGMHWVRQAPGKGLEWVAAISYDGSNKYYADSVKGRFTISRDNSKNTVYLQMNSLRAEDTAVYYCVRDSGLYGSGWSTYQYYAMDVWGQGTTVTVSS VL: ELVLTQSPSVSVAPGKTARITCGGNNIGSKSVHWYQQKPGQAPVLVVYDDSDRPSGIPERFSGSNSGNTATLTISRVEAGDEADYYCQVWDSSSDHVVFGGGTKVTVL", "values": [{"measurement": "Kd", "setting": "[1]", "value": 0.0431, "unit": "nM"}]}
